Results as given in publication PMC9240080 (Nature Communications, 2022).

Molecular target: SARS-CoV RBD-His8-SpyTag003 (SARS-CoV, UniProt P59594, heterogeneous N-linked glycosylation)
Test: ELISA
Conditions: both partners purified

B1: EY6A (antibody, V domains shown)
VH: EVQLVESGGGVVQPGRSLRLSCAASAFTFSSYDMHWVRQAPGKGLEWVAVISYDGSNKYYADSVKGRFTISRDNSKNTLYLQMNSLRAEDTAVYYCAKDGGKLWVYYFDYWGQGTLVTVSS
VL: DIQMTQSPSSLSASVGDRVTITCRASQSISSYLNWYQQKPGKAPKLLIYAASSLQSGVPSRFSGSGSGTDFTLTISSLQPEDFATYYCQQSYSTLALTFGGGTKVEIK
B1: binds.
